This is an account of results in IntAct's records for PubMed 34075876.

To fix the notation:
B1: Protein TOPLESS (Arabidopsis thaliana (Mouse-ear cress)), Q94AI7 (parent)
chain: MSSLSRELVFLILQFLDEEKFKETVHKLEQESGFFFNMKYFEDEVHNGNWDEVEKYLSGFTKVDDNRYSMKIFFEIRKQKYLEALDKHDRPKAVDILVKDLKVFSTFNEELFKEITQLLTLENFRENEQLSKYGDTKSARAIMLVELKKLIEANPLFRDKLQFPTLRNSRLRTLINQSLNWQHQLCKNPRPNPDIKTLFVDHSCGPPNGARAPSPVNNPLLGGIPKAGGFPPLGAHGPFQPTASPVPTPLAGWMSSPSSVPHPAVSAGAIALGGPSIPAALKHPRTPPTNASLDYPSADSEHVSKRTRPMGISDEVNLGVNMLPMSFSGQAHGHSPAFKAPDDLPKTVARTLSQGSSPMSMDFHPIKQTLLLVGTNVGDIGLWEVGSRERLVQKTFKVWDLSKCSMPLQAALVKEPVVSVNRVIWSPDGSLFGVAYSRHIVQLYSYHGGEDMRQHLEIDAHVGGVNDISFSTPNKQLCVITCGDDKTIKVWDAATGVKRHTFEGHEAPVYSVCPHYKENIQFIFSTALDGKIKAWLYDNMGSRVDYDAPGRWCTTMAYSADGTRLFSCGTSKDGESFIVEWNESEGAVKRTYQGFHKRSLGVVQFDTTKNRYLAAGDDFSIKFWDMDAVQLLTAIDGDGGLQASPRIRFNKEGSLLAVSGNENVIKIMANSDGLRLLHTFENISSESSKPAINSIAAAAAAAATSAGHADRSANVVSIQGMNGDSRNMVDVKPVITEESNDKSKIWKLTEVSEPSQCRSLRLPENLRVAKISRLIFTNSGNAILALASNAIHLLWKWQRNERNATGKATASLPPQQWQPASGILMTNDVAETNPEEAVPCFALSKNDSYVMSASGGKISLFNMMTFKTMATFMPPPPAATFLAFHPQDNNIIAIGMDDSTIQIYNVRVDEVKSKLKGHSKRITGLAFSNVLNVLVSSGADAQLCVWNTDGWEKQRSKVLPLPQGRPNSAPSDTRVQFHQDQAHFLVVHETQLAIYETTKLECMKQWAVRESLAPITHATFSCDSQLVYASFMDATVCVFSSANLRLRCRVNPSAYLPASLSNSNVHPLVIAAHPQEPNMFAVGLSDGGVHIFEPLESEGKWGVAPPAENGSASGAPTAPSVGASASDQPQR
partner: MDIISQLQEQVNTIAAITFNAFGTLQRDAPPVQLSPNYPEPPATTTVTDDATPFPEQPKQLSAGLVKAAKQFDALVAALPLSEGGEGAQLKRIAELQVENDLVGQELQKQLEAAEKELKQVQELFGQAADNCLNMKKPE
B2: Protein TOPLESS (Arabidopsis thaliana (Mouse-ear cress)), Q94AI7 (parent)
chain: B1 chain
partner: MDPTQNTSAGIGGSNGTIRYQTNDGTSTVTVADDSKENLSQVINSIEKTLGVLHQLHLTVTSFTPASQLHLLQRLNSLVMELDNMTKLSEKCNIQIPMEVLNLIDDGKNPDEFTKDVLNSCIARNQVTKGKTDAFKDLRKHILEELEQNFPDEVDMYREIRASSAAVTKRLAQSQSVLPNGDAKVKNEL

In the first experiment the parent is B1. To be noted: with med21_arath MED21, C0LU16.
Turning to E146A, the “effect of a mutation on the interaction” value is listed as “decreasing interaction strength”.

On to V145A, for which the “effect of a mutation on the interaction” value is listed as “decreasing interaction strength”. Turning to K149A, the “effect of a mutation on the interaction” value is listed as “decreasing interaction strength”. On to K148A, for which the “effect of a mutation on the interaction” value is “decreasing interaction strength”.

In the next experiment the parent is B1. To be noted: with med21_arath MED21, C0LU16. This is another data set of the same source.
Take V145A;E146A;K148A;K149A: the “effect of a mutation on the interaction” value is listed as “disrupting interaction strength”.

Variants of B2 are the subject of another experiment. To be noted: with md10b_arath MED10B.
For V145A;E146A;K148A;K149A, the “effect of a mutation on the interaction” value was “decreasing interaction strength”.
